This data set is described as follows: label from the status in PepcDB records.
As for “MAALAEEQTEVAVKLEPEGPPTLLPPQAGDGAGEGSGGTPNNGPNGGGGGNVAVAAAAGGDGGTPKPGVAVSAAAPAGAAPVPAAPAEAGAPHDRQTLLAVLQFLRQSNLREAEEALRREARLLEEAVAGSGAPGELDGAGAEAASALLSRVTASVPGSAAPEPPGTGASVTSVFSGSASGPAAPGKVASVAVEDQPDVSAVLSAYNQQGDPTMYEEYYSGLKHFIECSLDCHRAELSQLFYPLFVHMYLELVYNQHENEAKSFFEKFHGDQECYYQDDLRVLSSLTKKEHMKGNETMLDFRTSKFVLRISRDSYQLLKRHLQEKQNNQIWNIVQEHLYIDIFDGMPRSKQQIDAMVGSLAGEAKREANKSKVFFGLLKEPEIEVPLDDEDEEGENEEGKPKKKKPKKDSIGSKSKKQDPNAPPQNRIPLPELKDSDKLDKIMNMKETTKRVRLGPDCLPSICFYTFLNAYQGLTAVDVTDDSSLIAGGFADSTVRVWSVTPKKLRSVKQASDLSLIDKESDDVLERIMDEKTASELKILYGHSGPVYGASFSPDRNYLLSSSEDGTVRLWSLQTFTCLVGYKGHNYPVWDTQFSPYGYYFVSGGHDRVARLWATDHYQPLRIFAGHLADVNCTRFHPNSNYVATGSADRTVRLWDVLNGNCVRIFTGHKGPIHSLTFSPNGRFLATGATDGRVLLWDIGHGLMVGELKGHTDTVCSLRFSRDGEILASGSMDNTVRLWDAVKAFEDLETDDFTTATGHINLPENSQELLLGTYMTKSTPVVHLHFTRRNLVLAAGAYSPQ”, the protein production entry was “failed”. For “MSHALRAVFLDHASLDLGDLDMRPLRAAFDELQLHAASQPQEVAARLHDARVAISNKVPIDAQCIAACPELELILISATGTNNIDLAAARERGIVVANCHGYGTPSVAQHTLALLLALATRLPDYQQAVRSGRWQQSSQFCLLDFPIVELEGKTLGLLGHGELGGAVARLAEAFGMRVLLGQLPGRPARADRLPLGELLPRVDALTLHCPLTEDTRGMLGSAELALMKPGAFLVNTARGGLVDEQALADALRGGHLGGAATDVLSVEPPRNGNPLLAPDIPRLIVTPHNAWGSREARQRIVGQLAENAEAWKAGR”, the protein production entry is “failed”.

Consider “DFRASATRPFTGEEYLASLRDDREIYIYGDRVKDVTSHPAFRNAAASMARLYDALHDPQSKEKLCWETDTGNGGYTHKFFRYARSADELRQQRDAIAEWSRLTYGWMGRTPDYKAAFGSALGANPGFYGRFEDNAKTWYKRIQEACLYLNHAIVNPPIDRDKPVDQVKDVFISVDEEVDGGIVVSGAKVVATNSALTHYNFVGQGSAQLLGDNTDFALMFIAPMNTPGMKLICRPSYELVAGIAGSPFDYPLSSRFDENDAILVMDKVFIPWENVLIYRDFERCKQWFPQGGFGRLFPMQGCTRLAVKLDFITGALYKALQCTGSLEFRGVQAQVGEVVAWRNLFWSLTDAMYGNASEWHGGAFLPSAEALQAYRVLAPQAYPEIKKTIEQVVASGLIYLPSGVRDLHNPQLDKYLSTYCRGSGGMGHRERIKILKLLWDAIGSEFGGRHELYEINYAGSQDEIRMQALRQAIGSGAMKGMLGMVEQCMGDYDENGWTVPHLHNPDDIN”, for which the protein production result was “failed”. On to “MRYLADHDDLTGLHNRRALLQHLDQRLAPGQPGPVAALFLDLDRLKAINDYLGHAAGDQFIHVFAQRIGDALVGESLIARLGGDEFVLIPASPMSADAAQPLAERLRDQLKDHVAIGGEVLTRTVSIGVASGTPGQHTPSDLLRRADQAALAAKHAGGDSVAIFTLEHHHHHH”, for which the protein production entry is reported as “failed”. Consider “MKPADLTNADRIALELGHAGRNAIPYLDDDRNADRPFTLNTYRPYGYTPDRPVVVVQHGVLRNGADYRDFWIPAADRHKLLIVAPTFSDEIWPGVESYNNGRAFTAAGNPRHVDGWTYALVARVLANIRAAEIADCEQVYLFGHSAGGQFVHRLMSSQPHAPFHAVTAANPGWYTLPTFEHRFPEGLDGVGLTEDHLARLLAYPMTILAGDQDIATDDPNLPSEPAALRQGPHRYARARHYYEAGQRAAAQRGLPFGWQLQVVPGIGHDGQAMSQVCASLWFDGRMPDAAELARLAGSQSA”, for which the protein production result is reported as “not failed”. Take “MSEAPHLTFDLDTPGVSTGHLVVPKGADCEALSLPVFSCNRGEGPSLLITGGNHGNELQGPILARRLVKWLPEAQRCGRIIIVPEINPLAVQAWTRNTPIDGKNLNRVFPGRSDGSVSERIADAISRLLLPVVDTVLDLHSFGPTWDCAPSIISHPIADIDQMTKTVSISKAFKLPVTLLWEHNETDGMFDTLVHRQGKTFICTEFGGGVVSAEALTIYEAGVRNGLIALGLVKGKAEYPTFRQQKTGQTLETTSSDQLKSPSPGIFEPRCSVMDEVEQGDVVGVLHPMGSLSAASIDIRAQSKSTVFAIRSAMYVQGNEEVAILARPLAR”: the protein production entry is on record as “not failed”. With “MFKKTFSMICCVIFLQGCSQEQEVKKEMTNMETALLAATEKNETNTVISLLKQGANINATDNQGRTPLMIATYKNDVKTAKALIKAGADVNIQDDMKNNPFLYAGAEGYLDILKLTINAGADPTITNRYGGTALIPASEHGYIDVIKELLTRTNIDVNHVNNLGWTALMETIVLSNGNETQQQVIRLLIEHGADVNIPDNDGVTPLEHARAHNFAEIEKILLEGNK”, the protein production entry is given as “failed”.

As to “MECDRISTLPDHLVAKIVSYLGIKDSIKTSVLSKRWEFVWLKVVGLDLKNCDFPPNGIASQMVVNKYMEFNSGLHMQYFKVNFGGNTVCTNRFLEWIATAVDRGVQHLDAENKNPVIIKEFMPKKIYKSKTLVSLKLAIKIFLKARHFISVFIVLQGQSIVQFSSRCGTFS”, the protein production entry is listed as “not failed”. “MSLEDRKNERLPSDLARRATAIIEMPDGVLVTASRGGRYNLPGGKANRGELRSQALIREIREETGLRINSMLYLFDHITPFNAHKVYLCIAQGQPKPQNEIERIALVSSPDTDMDLFVEGRAILRRYARLRNEETAKGEALRALLGLARYIAKVDEGHHHHHH”: the protein production entry is “not failed”.

For “MENTKKSPTYVYALGGLEEIGKNTYVVEHEDEIILIDAGIKFANASLPGFDGTVANFDYLIKNNHKIHSLVVTHGHEDHIGGIPHILRHVKIKTIYAPTLAAKLIERRLSEYKDIKPPRIIVFEDESMYKTKYFEVDFYRVCHSIPDSFGICVKTPNGYIVTTGDFRFDFATAGDETNLAKISQISNRGISVLMCESTSAEIPGFSESERYVIDNIRDYMVNIKGRTFISTFASNLGRVEEIIAIAVGLNKKICIIGKSMEANIKTSRKLGYLNVPESSFITHKELPFYKDHEIVVILTGSQGEKMAALNVMANNNHSKITLKPSDTIILSSNPIPGNYAQVEAMVNKLYKLGLTVYENSPNKKIHASGHATRSEHQLMIKAINPSYLFPIHGEYKMFRALKQNAVDQGFDKDHVIIAPNGQKLQLLDGVLSHTNIYVDAEPKFINGYEISSKISKLLSERVVLSSDGILNLVLNADFKKAKLNSAVSISTRGCFFAKESTNLINKISNVAKSSLEEALAKKEFDEKKLKEIVSGNVKSIVWKWRKKNPIINVTIINNDLVEQFRKDNNYVEFIKQAEVEEIEQEVDIDDLISNGL”, the protein production entry is reported as “failed”. For “MGILDKVKNLLSQNADKVETVINKAGEFVDEQTQGNYSDAIHKLHDAASNVVGMSDQQS”, the protein production entry is given as “not failed”. “MATVPSNPAFAPTLSTRGRLNGILFVALFAVAVTQLAAMPAIANLGISPLIVGIVAGALYGNALRDGVPASWAAGINFSARGLLRIAVAFFGLRVSLQEIAEVGWSGLIVSVLVVTSTLLIGLWCGMKVFKLDRDTALLTAAGSAICGAAAVLAFESALRSAPHKSAMAVGSVVLFGTLSMFLYPLAINAGWLHLDTMGAGLLLGGTVHEVAQVVGAASNVSPEATHVATIVKMTRVMLLVPVLLVVGLWISRSRKAGQAQGNGRIAMPWFAFGFLALVLVNSMQVLPGSVTQAVNSLDTFALTMAMTALGMETRFSQIRQAGPRALATGAILNLWLVGGGLAITLGVQKLLG”: the protein production result is “failed”. As for “MNPDSQHHATFNPGKGEGSPVGIAILGYGTVGSQVLRLLTENHNDFQHRAGGPLEIKGVAASSVEKHRGSLADQLGLLTDDARSLIARDDVDIVVEVIGGIDYPRELILEALHSGKSVVTANKALVAAHSEELAAAADEAGVDLYFEAAVAAAIPVLGPLRRSLAGDQIQSVAGIVNGTTNFILDAMDSTGASYDDMLAEATRLGYAEADPTADVEGHDAASKAAILASLAFHTRVTYADVYCEGISKITADDINAAKEAGFTIKLLAICERLNVDGVEKVSARVHPTLVPRNHPLASVDKSFNAIFVEAEAAGRLMFYGNGAGGNPTASAVLGDIVGAARNKVFGGRAPGESTYADLPIAPFGEVPTRFHIDMEVEDRVGVLADLAKTFSNHGISLRTVRQAEKDGHARLIVVTHTAKESELEATVEQIKNSDSVKKINSVIRLAGE”, the protein production result is listed as “failed”. In the case of “PSNAMKQAWLQISQDNKLMSCNDTSKANALLDMVTQGLNPAKNQCYFIPYGNKMQLQRSYHGNVMMLKRDAGAQDVVAQVIYKGDTFKQEMGETGRIKAIKHEQDFFNIDKENIIGAYCTIVFNDGRDNYIEVMTIEQIKQAWMQSSMIKDEKALQNSKTHNNFKEEMAKKTVINRAAKRYINTSTDSNLFKYAQESEQRQRKEVLDAEVEENANQE” it was “not failed”; in that of “MQDFRFVAAAIVFIFTLILVTVRPWKIDIGYGALIGAFVSIILGISTPADVIKVWNIIWNPTFTFVAIIAMSLVLDYAGFFEYYAIRISKFAGGNGIKLFVFIVILGSLTAAFFANDGAVLVLTPIVLSIMDMTGIGKKGAVAYIMAIGFISDSSSLPFVISNLVNIIGSGYFGISFASYAKVMVIPDIISVVSSLGLLLLYYRKDIPRIYQVESLPNPKNVIKDPLIFKLAFPFMAIVVLAYFLTSFDLVPVSFVAVPAATILIVVARYNHRINTRSIIAEAPWQVVVFSLGMYIVVYGFGDNGLTSVLVHVTKSILLLGNPLSTVLAGLLFGAMAGSMNNLPSVMMGALTISHLNQNSFLIYANVIGNDIGPKFTPIGSLATLLWIYTLQRKHGVQITPIYYMKVGFIIAFPVLVLTLLSLYATIYFGL”, “failed”. For “MRNIYDLANELERGIRALPEYKNLVEKKEAIATDAEASALFKEFTDFQEDFYAKMQAGTMPTAEEQAAVQELGQKVEANALLKEYLTAQQSLSVYLNDIERIIFKPLQELNN” the value was “failed”; for “MNNLNFTVIIPLFNKAEHILRTLQSVEWQKYPAAEIIVIDDGSTDEGPALVEKANIKNVKLVHQENQGVSAARNNGVALASHEYVAFLDADDEWLPLFLDEVARLIVKFPQAQFFGTRYQIVEPENNYCDAKIKLENINPEGVILDNYFDIASQGDLPFTMSSMVIERSLFQSIGGFPLNEPIGEDQDLFCRVALNTSIAYSPNIHSLYHKDAQNQASRINIPSTECGFSVRITKEARKDTKRKSAKYMLKYSATHLCHLAKLNIGNGHFSQARKLLSDPRCKLKPKHLIGLYGLSWIQQTSQWLANIIDYKQI”, “failed”; for “MREDNPNWFLRWEEELPSPEELIPISQTLITPHLALAFQIGSPNHHLGSKRTTAIYHQKLQSSTTPTTPTPTPPPMMMNSDFGGGDSTDLGSGSIGGEPARTLKRPRLVWTPQLHKRFVDAVGHLGIKNAVPKTIMQLMSVEGLTRENVASHLQKYRLYLRRMQGGNGNGITGGHVIVSDSATDRLFASSPVPAHFLSPDYLMPPLEHSYMGKHVITQQNQVVRNLRYEDSEYGHGSMKMLKLFPAGN”, “not failed”.

These data come from a protein production outcome set (Wang et al. 2014).
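Further: failed if final PepcDB status was selected cloned or expressed and not failed if soluble or beyond.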
